Measurements published in the RNAGym collection of RNA variant scans (doi:10.1073/pnas.2313332121).

B1: TPR t1 (parent)
chain: GACCAAUCUGCCCUCAGAGCUCGAGAACAUCUUCGGAUGCAGAGGAGGCAGGCUUCGGUGGCGCGAUAGCGCCAACGUCCUCAACCUCCAAUGCAUCCCACCACAUGAUGAUGCCUGAAGAGCCUUGGUUUUUUG

Variants of: B1
Assay: polymerase ribozyme fitness, log enrichment relative to wild type (log ratio); higher = more active; in vitro selection for triplet polymerase activity
Method in brief: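 Libraries of mutants in each subunit of a heterodimeric triplet polymerase ribozyme were generated by PCR and transcribed. In triplicate, each went through one in vitro selection round: annealing with biotinylated primer, partner subunit and triplets; frozen incubation at −7 °C; gel excision of extended constructs; streptavidin-bead capture; RT-PCR. Fitness, taken from Illumina sequencing of input and output libraries, is the logarithm of a genotype's enrichment over wild-type enrichment, averaged across replicates with inverse-variance weights. The logarithm is base 2, and genotypes needed ≥10 input reads and ≥1 read per output to be kept.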

| Variant | polymerase ribozyme fitness (log ratio) |
| --- | --- |
| G63U C80A | -4.88 |
| C64G G65U C79G C104A C115A C123G | -6.93 |
| C64U C97A | -5.08 |
| C64A U112C | -4.53 |
| G65A U106G | -6.66 |
| G65C C85U A108U C123G | -7.43 |
| C64G G113A | -6.17 |
| C64U C101U | 0.0607 |
| G69A C76A C123U | -5 |
| G69A C80U | -2.58 |
| A68U C72U C82A G93C C115U G122A | -7.25 |
| A68G A83C U96G U106A A121C | -1.7 |
| A66G G122A U129C | -2.27 |
| A68G C94A | -5.05 |
| G63U U109G | -6.35 |
| A66U A74G A118U | -0.793 |
| G63U U67A | -6.27 |
| U67G G69U G113U | -7.04 |
| A66C U96C | -2.57 |
| C64U C115U U130A | -1.66 |
| A66C C85G U106A | -2.61 |
| A66C U78C | -1.36 |
| G65C C124A | -4.91 |
| G63U C86U U112A | -0.646 |

| Variant | polymerase ribozyme fitness (log ratio) |
| --- | --- |
| G63U U78G G107U A111U U116C | -6 |
| G63U C94A A108G | -5.53 |
| C64U C70A A111C C115G G128U | -5.81 |
| A68C U78G U112A | -7.68 |
| A66U G71A | -2.53 |
| C64U G65A A105G G113A | -6.73 |
| U67C C114U | -6.64 |
| G63U C124A | 0.583 |
| G63U C124G | 0.287 |
| G65A U112A | -2.74 |
| G65A A68G A121U C123G | -5.3 |
| C64U C123G | 1.86 |
| C64U C123U | 1.23 |
| C64G G120C | -4.47 |
| A66C A95G | -1.6 |
| C64G C123U | -3.63 |
| C64G C123G | -5.33 |
| G63U C82A U126A | -3.13 |
| G63U U134C | -2.26 |
| C64U G69U G128C | -3.93 |
| G63U G77C C124U | -0.341 |
| C64G C115A G128A U130C | -5.49 |
| G63U G113C | -2.98 |
| G63U G113U | -4.29 |

| Variant | polymerase ribozyme fitness (log ratio) |
| --- | --- |
| G63U G113A | -1.99 |
| C64U C79U U106A U109A | -5.15 |
| A68G U96G | -3.68 |
| A66U C115U | -3.52 |
| A66G G71U C94A A111C | -4.73 |
| A68G U87G A118U U132A | -2 |
| A66G U131G | -2.21 |
| A68U C79A C104A A111U | -8.01 |
| C64U A111C C115A | -4.52 |
| G65A A111C | -5.66 |
| A68G A100C | -4.96 |
| A66C G120U U132C | -0.962 |
| U67G C88U A111G U116A | -7.24 |
| C64U G110C | -3.51 |
| G69A C72U A111C U131A | -3.01 |
| C64U A84U U87A | -1.17 |
| G65A C88G | -5.43 |
| C64G C124U | -5.45 |
| A68C A105C U112G | -6.56 |
| C64U C86A G122A U132A | -2.78 |
| C64U C86A G135U | -2.35 |
| U67A C73U C94A C104U G117U | -6.08 |
| C64U C79A G110A | -3.21 |
| C64A G120C U125G | -7.86 |

| Variant | polymerase ribozyme fitness (log ratio) |
| --- | --- |
| C64U U87G G113A | -0.485 |
| A68U C82U A91G C101G C123U G128U | -5.8 |
| C64U C94U C102G | -7.24 |
| A68G C94G G122A | -5.12 |
| G69A C86U A111C | -3.32 |
| A66U C72G A95C G110U | -6.57 |
| C64U A111C U112C | -0.987 |
| C64U G77A | -0.391 |
| C64U G77U | -0.465 |
| C64G C88U | -5.96 |
| G69A C86U | -3.19 |
| G63U C73A | -2.51 |
| G63U U81G A121C | -3.58 |
| G63U U125A | -1.51 |
| C64U A84U | -0.154 |
| C64U A84C | 0.992 |
| G65U C73U | -5.34 |
| C64A G120U | -6.12 |
| C64A G120A | -5.35 |
| A66C C70U G113A | -2.81 |
| C64U C82U G93U C94U U96C C123U | -3.01 |
| C64U G93C | -0.827 |
| G63U A105U | -3.37 |
| G65A G77A | -5.24 |

| Variant | polymerase ribozyme fitness (log ratio) |
| --- | --- |
| G63U C89U G93A G120A | -1.65 |
| A66U C73A C85G | -2.04 |
| G63U C72A | -4.54 |
| G63U C72G | -3.89 |
| C64U U78A | -0.358 |
| A66U C124G | 0.671 |
| A66U C124U | 0.294 |
| C64U C85A U96G U125A | -2.82 |
| C64U A83G A111C | -2.93 |
| G65U C72A | -5.48 |
| C64U G71U | -2.96 |
| G63U C70A U116A | -3.62 |
| A66C U112A G128C | -4.27 |
| C64U C115A | -0.337 |
| C64A G65A C97U G120A | -5.01 |
| A66G C124G G128A | -1.05 |
| C64U A100U | -0.493 |
| G63U U131C U132A | -1.24 |
| G63U U116A | -3.57 |
| A68G C124U | -1.26 |
| C64A G110A G120A | -7.98 |
| A68G G113C | -4.28 |
| C64U G113U | -2.54 |
| C64U G113C | -0.91 |

| Variant | polymerase ribozyme fitness (log ratio) |
| --- | --- |
| A66C C72G C115A | -1.65 |
| A66C G69C C97G C101A G107A U112G U130G | -6.88 |
| U67G U92G C99G A121G | -7.6 |
| A68U G93U C101A G113U G117A | -6.33 |
| G63U C98A | -6.63 |
| G63U C98U | -2.09 |
| C64U G120C | 0.769 |
| G65U C70U | -5.58 |
| C64U U96A | -1.23 |
| A66U G77A A95C | -2.7 |
| G69A C79U C80U | -6.55 |
| G69A A91C U125A | -6.56 |
| C64U C82A A91U G127U | -2.81 |
| G63U U78C C101A | -4.07 |
| C64U C76U C89U U96A | -3.47 |
| G63U U130A | -1.46 |
| G63U U130G | -0.881 |
| G69A A111U U130A | -6.09 |
| C64U G107U U130C | -6.04 |
| G63U C86A | -2.12 |
| G63U U133A | -2.29 |
| A68U C123U | -5.66 |
| C64U C89U C123U | 0.715 |
| C64U A90U A100U | -3.1 |

| Variant | polymerase ribozyme fitness (log ratio) |
| --- | --- |
| C64G C114G | -6.51 |
| C64G C114U | -6.35 |
| A68G C102A | -6.51 |
| G63U U87G G117U C123A | -3.97 |
| G63U U112A | -0.0798 |
| G63U U112C | -0.421 |
| C64U A83U A95G G127C | -2.12 |
| C64U G77A C80A U92C | -5.1 |
| G63U U78C C94A | -3.61 |
| A66C C89A G117U | -6.24 |
| G63U U116C U129A | -3.33 |
| C64U C76G C85A | -3.38 |
| A66G C79G U81C C99G G113U G120C | -7.68 |
| A66G G71A A83C C88U U106A U130G | -3.75 |
| A66G U78C U87G | -0.388 |
| C64U C114G | -2.3 |
| C64G U78G G120A A121G C123A U131C | -4.99 |
| G63U C99U U106A | -3.55 |
| A66U U130A | -1.42 |
| G63U G120U | -0.921 |
| A66G G77A | -1.13 |
| G65U G69U G113A U130G | -4.13 |
| C64U G117C C123U U125A | -6.02 |
